According to article PMC8457375 (Chemical Science, 2021):

T1: FADD^DD (UniProt Q13158 97-181)
T1 sequence: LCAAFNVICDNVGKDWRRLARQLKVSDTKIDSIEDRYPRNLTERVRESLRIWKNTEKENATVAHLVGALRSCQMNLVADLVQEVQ

B1: S286Y^SseK1 (enzyme)
chain: MIPPLNRYVPALSKNELVKTVTNRDIQFTSFNGKDYPLCFLDEKTPLLFQWFERNPARFGKNDIPIINTEKNPYLNNIIKAATIEKERLIGIFVDGDFFPGQKDAFSKLEYDYENIKVIYRNDIDFSMYDKKLSEIYMENISKQESMPEEKRDCHLLQLLKKELSDIQEGNDSLIKSYLLDKGHGWFDFYRNMAMLKAGQLFLEADKVGCYDLSTNSGCIYLDADMIITEKLGGIYIPDGIAVHVERIDGRASMENGIIAVDRNNHPALLAGLEIMHTKFDADPYYDGVCNGIRKHFNYSLNEDYNSFCDFIEFKHDNIIMNTSQFTQSSWARHVQ
B2: N302Y^SseK2 (enzyme)
chain: MARFNAAFTRIKIMFSRIRGLISCQSNTQTIAPTLSPPSSGHVSFAGIDYPLLPLNHQTPLVFQWFERNPDRFGQNEIPIINTQKNPYLNNIINAAIIEKERIIGIFVDGDFSKGQRKALGKLEQNYRNIKVIYNSDLNYSMYDKKLTTIYLENITKLEAQSASERDEVLLNGVKKSLEDVLKNNPEETLISSHNKDKGHLWFDFYRNLFLLKGSDAFLEAGKPGCHHLQPGGGCIYLDADMLLTDKLGTLYLPDGIAIHVSRKDNHVSLENGIIAVNRSEHPALIKGLEIMHSKPYGDPYYDWLSKGLRHYFDGSHIQDYDAFCDFIEFKHENIIMNTSSLTASSWR

What was measured:
[1] = target: FADD^DD (UniProt Q13158); experiment: ITC
[2] = target: FADD^DD (UniProt Q13158)
[3] = target: T1, FADD^DD; experiment: cell-based or functional assay
[4] = target: T1, FADD^DD; experiment: ITC

Row | Molecule | Kd [1] [nM] | Km for FADD^DD, glycosylation kinetics [2] [µM] | Km for FADD^DD, glycosylation kinetics, fold worse than that of NleB1^EHEC [3] [fold] | fold by which the Kd of NleB1^EHEC is better [4] [fold]
1 | NleB1^EHEC (enzyme) | 200 | 13 |  | 
2 | B1 |  |  | 4.4 | ~6
3 | B2 |  |  |  | ~472
